This note sets out measurements from the supplement of paper PMC7877785.

± gives the uncertainty stated by the source.

The data set can be described thus: self-splicing fitness, log relative to wild type (ln ratio); higher = more splicing; Tetrahymena group I intron in knt gene, E. coli kanamycin selection, DiMSum; sequences stand for … in CUCUCU…GGAGGGAAAAGUUAUCAGGCAUGCACCUGGUAGCUAGUCUUUAAACCAAUAGAUUGCAUCGGUUUAAAAGGCAAGACCGUCAAAUUGCGGGAAAGGGGUCAACAGCCGUUCAGUACCAAGUCUCAGGGGAAACUUUGAGAUGGCCUUGCAAAGGGUAUGGUAAUAAGCUGACGGACAUGGUCCUAACCACGCAGCCAAGUCCUAAGUCAACAGAUCUUCUGUUGAUAUGGAUGCAGUUCACAGACUAAAUGUCGGUCGGGGAAGAUGUAUUCUUCUCAUAAGAUAUAGUCGGACCUCUCCUUAAUGGGAGCUAGCGGAUGAAGUGAUGCAACACUGGAGCCGCUGGGAACUAAUUUGUAUGCGAAAGUAUAUUGAUUAGUUUUGGAGUACUCGUGGUCG
Summed up:
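Six replicate transformations of E. coli BL21(DE3) with a pET-22b(+) library were grown overnight at 37°C or 30°C. The library randomised all eight P1ex-region intron nucleotides, the intron lying in the knt kanamycin-resistance gene, and plates were LB agar with or without 25 μg/mL kanamycin plus 100 μg/mL carbenicillin, 50 μM IPTG and 0.2% rhamnose. Pooled colonies were amplicon-sequenced on an Illumina HiSeq 2500, and fitness is the DiMSum error-weighted combination of wild-type-normalised replicate fold changes, kanamycin versus none.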

Turning to CCCAAGCAAUAUUACGUGUG, the “self-splicing fitness (ln)” value was -2.98 ± 0.071 (30 °C) and -3.12 ± 0.094 (37 °C).

For the sequence CCCAAGCAAUAUUACGUUAU, the “self-splicing fitness (ln)” value is -4.09 ± 0.2 (30 °C) and -2.96 ± 0.19 (37 °C).

Take CCCCAGCAAUAUUACGAAAG: the “self-splicing fitness (ln)” value is, setting by setting: (30 °C) -4.79 ± 0.23; (37 °C) -1.93 ± 0.12.

Regarding CCCCAGCAAUAUUACGAAUC, the “self-splicing fitness (ln)” value was -3.68 ± 0.16 (30 °C) and -2.49 ± 0.22 (37 °C).

Regarding CCCCAGCAAUAUUACGACAA, for the setting “37 °C”, the “self-splicing fitness (ln)” value was -2.78 ± 0.28.

CCCCAGCAAUAUUACGACUG: the “self-splicing fitness (ln)” value (30 °C) is -3.32 ± 0.11 and the “self-splicing fitness (ln)” value (37 °C) was -2.97 ± 0.17.

Regarding CCCCAGCAAUAUUACGAGGG, the “self-splicing fitness (ln)” value is, setting by setting: (30 °C) -3.83 ± 0.15; (37 °C) -2.78 ± 0.18.

For CCCCAGCAAUAUUACGAGGU, the “self-splicing fitness (ln)” value by setting is: (30 °C) -3.6 ± 0.12; (37 °C) -2.23 ± 0.12.

With CCCCAGCAAUAUUACGAGUA, the “self-splicing fitness (ln)” value is -2.91 ± 0.12 (30 °C) and -2.58 ± 0.14 (37 °C).

For the sequence CCCCAGCAAUAUUACGAUCA, the “self-splicing fitness (ln)” value by setting is: (30 °C) -1.97 ± 0.12; (37 °C) -2.68 ± 0.23.

With CCCCAGCAAUAUUACGAUGU, the “self-splicing fitness (ln)” value (30 °C) was -4.53 ± 0.2 and the “self-splicing fitness (ln)” value (37 °C) is -3.11 ± 0.17.

Regarding CCCCAGCAAUAUUACGCACC, the “self-splicing fitness (ln)” value (30 °C) was -2.46 ± 0.18 and the “self-splicing fitness (ln)” value (37 °C) is -2.32 ± 0.24.

On to CCCCAGCAAUAUUACGCAGC, for which the “self-splicing fitness (ln)” value (30 °C) was -3.44 ± 0.15 and the “self-splicing fitness (ln)” value (37 °C) was -2.84 ± 0.21.

For CCCCAGCAAUAUUACGCCGC, the “self-splicing fitness (ln)” value is -2.93 ± 0.31 (30 °C) and -2.26 ± 0.42 (37 °C).

For CCCCAGCAAUAUUACGCCGU, the “self-splicing fitness (ln)” value runs as follows: (30 °C) -3.04 ± 0.16; (37 °C) -2.23 ± 0.21.

With CCCCAGCAAUAUUACGCCUA, the “self-splicing fitness (ln)” value was -2.61 ± 0.18 (30 °C) and -2.89 ± 0.32 (37 °C).

With CCCCAGCAAUAUUACGCCUC, the “self-splicing fitness (ln)” value is -3.25 ± 0.21 (30 °C) and -1.6 ± 0.21 (37 °C).

For CCCCAGCAAUAUUACGCGAU, the “self-splicing fitness (ln)” value by setting is: (30 °C) -4.32 ± 0.25; (37 °C) -2.36 ± 0.28.

Turning to CCCCAGCAAUAUUACGCGGU, the “self-splicing fitness (ln)” value was -3.91 ± 0.13 (30 °C) and -2.17 ± 0.15 (37 °C).

Consider CCCCAGCAAUAUUACGCUCA, for which the “self-splicing fitness (ln)” value runs as follows: (30 °C) -3.21 ± 0.24; (37 °C) -0.421 ± 0.17.

Consider CCCCAGCAAUAUUACGCUCC, for which the “self-splicing fitness (ln)” value runs as follows: (30 °C) -3.09 ± 0.36; (37 °C) -2.91 ± 0.47.

Consider CCCCAGCAAUAUUACGGGAG, for which the “self-splicing fitness (ln)” value runs as follows: (30 °C) -3.08 ± 0.17; (37 °C) -2.61 ± 0.18.

Turning to CCCCAGCAAUAUUACGGGGA, the “self-splicing fitness (ln)” value was -3.15 ± 0.14 (30 °C) and -3 ± 0.15 (37 °C).

As to CCCCAGCAAUAUUACGGUAA, the “self-splicing fitness (ln)” value is -3.78 ± 0.15 (30 °C) and -2.78 ± 0.16 (37 °C).

CCCCAGCAAUAUUACGGUUA: the “self-splicing fitness (ln)” value is -3.5 ± 0.17 (30 °C) and -2.61 ± 0.13 (37 °C).

As to CCCCAGCAAUAUUACGUACU, the “self-splicing fitness (ln)” value by setting is: (30 °C) -3.21 ± 0.22; (37 °C) -2.67 ± 0.27.

With CCCCAGCAAUAUUACGUCGG, the “self-splicing fitness (ln)” value (30 °C) was -3.66 ± 0.16 and the “self-splicing fitness (ln)” value (37 °C) was -2.86 ± 0.33.

In the case of CCCCAGCAAUAUUACGUGAG, the “self-splicing fitness (ln)” value (30 °C) is -1.84 ± 0.07 and the “self-splicing fitness (ln)” value (37 °C) was -1.33 ± 0.084.

With CCCCAGCAAUAUUACGUGCA, the “self-splicing fitness (ln)” value was -4.13 ± 0.18 (30 °C) and -2.17 ± 0.14 (37 °C).

For CCCCAGCAAUAUUACGUGCG, the “self-splicing fitness (ln)” value runs as follows: (30 °C) -3.1 ± 0.099; (37 °C) -2.58 ± 0.14.

On to CCCCAGCAAUAUUACGUGUU, for which the “self-splicing fitness (ln)” value runs as follows: (30 °C) -3.79 ± 0.12; (37 °C) -3.3 ± 0.17.

With CCCCAGCAAUAUUACGUUUU, the “self-splicing fitness (ln)” value is -4.12 ± 0.14 (30 °C) and -2.55 ± 0.11 (37 °C).

CCCGAGCAAUAUUACGAAUG: the “self-splicing fitness (ln)” value runs as follows: (30 °C) -2.61 ± 0.18; (37 °C) -1.41 ± 0.22.
